Results reported in patent US20100183640A1.

Molecular target: purified human fibronectin (hFn), from human plasma (human) (UniProt P02751)
Test: cell-based or functional assay

B1: recombinant human uteroglobin (ligand)
chain: EICPSFQRVIETLLMDTPSSYEAAMELFSPDQDMREAGAQLKKLVDTLPQKPRESIIKLMEKIAQSSLCN
- % Inhibition of adhesion of NIH-3T3 cells to hFn-coated wells (50 ng rhUG): 54%
- Percent Inhibition of cellular adhesion to fibronectin, Hela cell line (50 ng): -5%
- Percent Inhibition of cellular adhesion to fibronectin, NIH-3T3 cell line (50 ng): 54%
